Patent US9873895B2, “Production of 1,3-dienes by enzymatic conversion of 3-hydroxyalk 4-enoates and/or 3-phosphonoxyalk-4-enoates” (Scientist of Fortune S.A., priority 2011, dated 2018)

Assay: 1,3-butadiene production from 3-phosphonoxypent-4-enoate by using a terpene synthase (headspace GC-FID)
Type: biochemical
Conditions: 5 mg/ml enzyme, 50 mM 3-phosphonoxypent-4-enoate, 37° C., 24 hours
Description: The reactions were performed in sealed vials. The total volume was 0.5 ml. Final concentrations were 5 mg/ml enzyme, 50 mM 3-phosphonoxypent-4-enoate, 4 mM DTT, 50 mM MgCl2, 50 mM KCl, 50 mM Tris-HCl buffer pH 7.5. The incubation was carried out at 37° C. for 24 h. The control reactions without enzyme or without substrate were performed in parallel under the same conditions.
One ml of the gaseous phase of the reaction was collected and analyzed by Gas-Chromatography with Flame Ionization Detector (GC-FID) ((Brucker GC 450) using a RTX-alumina column (Varian), with an isocratic elution at 130° C. and nitrogen as carrier gas at flow rate of 1.5 ml/min. The retention of commercial 1,3-butadiene (Sigma) in these conditions was 7.4 min.

B1: isoprene synthase from Pueraria montana var. lobata: purified His-tagged isoprene synthase (terpene synthase), Uniprot Q6EJ97, SEQ ID NO: 30, expressed in E. coli (protein, listed as Pueraria montana)
chain: MCATSSQFTQITEHNSRRSANYQPNLWNFEFLQSLENDLKVEKLEEKATKLEEEVRCMINRVDTQPLSLLELIDDVQRLGLTYKFEKDIIKALENIVLLDENKKNKSDLHATALSFRLLRQHGFEVSQDVFERFKDKEGGFSGELKGDVQGLLSLYEASYLGFEGENLLEEARTFSITHLKNNLKEGINTKVAEQVSHALELPYHQRLHRLEARWFLDKYEPKEPHHQLLLELAKLDFNMVQTLHQKELQDLSRWWTEMGLASKLDFVRDRLMEVYFWALGMAPDPQFGECRKAVTKMFGLVTIIDDVYDVYGTLDELQLFTDAVERWDVNAINTLPDYMKLCFLALYNTVNDTSYSILKEKGHNNLSYLTKSWRELCKAFLQEAKWSNNKIIPAFSKYLENASVSSSGVALLAPSYFSVCQQQEDISDHALRSLTDFHGLVRSSCVIFRLCNDLATSAAELERGETTNSIISYMHENDGTSEEQAREELRKLIDAEWKKMNRERVSDSTLLPKAFMEIAVNMARVSHCTYQYGDGLGRPDYATENRIKLLLIDPFPINQLMYV
modifications: His tag; var. lobata
- ratio of butadiene produced in the presence of isoprene synthase versus in the absence of enzyme (butadiene peak areas): about 5 fold
